Substrate in the data set: N[C@@H](Cc1c[nH]cn1)C(=O)O
Description: purified protein. As to conditions: 100 mM Tris-HCl pH 8.8, 0.1 mM MnCl2, 1.7 mM reduced glutathione, 30°C, L-histidine 0.2 to 5 mM, four catalytic sites considered. Format: biochemical, Trypanosoma cruzi.

B1: 6×His-HAL (rHAL; histidine ammonia lyase) (Trypanosoma cruzi strain CL Brener) (protein)
chain: MRVILDGCSLTPDVLYALGYEKGATIEISDEAVARITAARAVIDKIVNDRQTVYGINTGFGKFESTIIPPHQLEELQLNLIRSHSACVGEPLTPERARMMLALRVNVLCKGHSGIRLETVQKYVKAFNAGVVPYIPEQGTVGASGDLGPLSHLALGMLGEGLLATLNNKKFRDAGSVLRELGVEPITLAAKEGLALINGTQFISALGAEAVVRARKIARLADVALAMSHEALRATNSTLNPDIHRVRPHKGQQLVAQRLRALLHSEEYPSMINESHVNCGRVQDAYSIRCAPQVHGISNEVIEWVYGILTTELNCATDNPLVFPDGVKKVVSGGNFHGEYPAKALDMLAIGVHELGNISERRIERLNNPTLSRLPAFLVKNGGLNSGFMIAHCTAAALVSENKVYCHPASADSISTSAAQEDHVSMGGFSARKAIKVVENVERIIAIELLGACQGIDLLRPLRTTEPMEKVWSLVRSVSPPWEEDRVINTDIDNVTKLLRSGAVWKTVKPYVPEEARFLGVLTVKKPFELKSKM
notes: four catalytic sites considered; Q4E133 used for alignment; locus tag from YC6
B1: the kcat lay within 9.027 to 11.7 s⁻¹.

The values are drawn from PMC8561398, “The Histidine Ammonia Lyase of Trypanosoma cruzi Is Involved in Acidocalcisome Alkalinization and Is Essential for Survival under Starvation Conditions” (mBio, 2021).
